Measurements reported in patent publication US20210386875.

Tested on: ^111In-labeled DTPA-pMMP9 peptide on non-radioactive 10 nm gold nanoparticles

Chain of MMP9 (chain, as listed by the source): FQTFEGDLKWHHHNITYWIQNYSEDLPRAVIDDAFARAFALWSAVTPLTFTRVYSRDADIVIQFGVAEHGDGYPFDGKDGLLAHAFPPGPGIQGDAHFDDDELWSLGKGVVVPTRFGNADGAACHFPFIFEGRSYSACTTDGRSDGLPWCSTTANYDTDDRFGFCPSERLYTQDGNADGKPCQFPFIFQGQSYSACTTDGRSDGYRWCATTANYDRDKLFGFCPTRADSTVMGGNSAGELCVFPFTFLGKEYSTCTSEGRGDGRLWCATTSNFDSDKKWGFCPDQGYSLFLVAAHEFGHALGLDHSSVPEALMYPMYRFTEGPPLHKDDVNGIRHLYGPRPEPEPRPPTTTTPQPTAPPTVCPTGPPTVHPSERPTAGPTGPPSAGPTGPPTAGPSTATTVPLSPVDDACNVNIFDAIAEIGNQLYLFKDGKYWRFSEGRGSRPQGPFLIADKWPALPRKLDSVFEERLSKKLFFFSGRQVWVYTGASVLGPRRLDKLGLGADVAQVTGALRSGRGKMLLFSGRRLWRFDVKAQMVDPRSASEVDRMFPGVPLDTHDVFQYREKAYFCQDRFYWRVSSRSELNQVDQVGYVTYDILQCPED

Question: With MMP9 as the substance, how does the “percent of ^111In cleaved from the nanoparticle after 48 hours incubation with MMP9 (16% without MMP9)” value read?
Answer: Its value is 48% ^111In was cleaved from the nanoparticle compared to only 16% without MMP9.
